# Measurements from EP4269424A1, “NOVEL ANTIVIRAL COMPOUNDS AND USE THEREOF” (priority 2022, dated 2023).
# B1: G3BPi WT peptide without CPP (peptide)
# peptide: LTFGDFDEHEVDALASGITFGDFDDW
# modifications: not checked
# Target: G3BP1 (human), Q13283
# Experiment: ITC at 25 °C, peptide titrated into G3BP1
# Chain of G3BP1 (human), Q13283 (Q13283 1-139 limits assumed): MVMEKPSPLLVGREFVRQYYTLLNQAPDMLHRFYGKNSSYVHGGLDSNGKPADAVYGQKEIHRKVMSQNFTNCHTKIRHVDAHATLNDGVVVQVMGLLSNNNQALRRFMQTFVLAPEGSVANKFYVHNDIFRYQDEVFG
binder,measurement,value
B1,Kd,3.6 µM
